Among the data in article doi:10.1101/2021.02.27.433207 are Kd and stoichiometry N values, retold here.

One data set relates to ParA2 (Vibrio cholerae). Nature of the data set: EMSA. Background: A gel shift assay detects complexes by their altered migration in electrophoresis.
Data set [1] addresses Vibrio cholerae chromosome 2 ParA2 (Vibrio cholerae). Put plainly: SEC-MALS. (In general: SEC sorts molecules by how far they enter the pores of the column.)

Usually Kd stands for the concentration at which binding is half-saturated. Higher therefore signals lower affinity. As for Cy3-62-bp DNA, in the data set on ParA2 (Vibrio cholerae), the Kd was 1 µM.

One may read the stoichiometry N as the number of molecules, sites or subunits per partner or assembly. In data set [1], “Vibrio cholerae chromosome 2 ParA2 (enzyme)” showed a stoichiometry N of 2.
